Measurements reported in paper doi:10.1101/2024.05.03.592356 (bioRxiv, 2024).

Biological target: the molecule itself
Test: crystal structure

B1: RdmB, N-terminal His6-tagged (enzyme, Streptomyces purpurascens)
chain: MSSSSPGEPLEPTDQDLDVLLKNLGNLVTPMALRVAATLRLVDHLLAGADTLAGLADRTDTHPQALSRLVRHLTVVGVLEGGEKQGRPLRPTRLGMLLADGHPAQQRAWLDLNGAVSHADLAFTGLLDVVRTGRPAYAGRYGRPFWEDLSADVALADSFDALMSCDEDLAYEAPADAYDWSAVRHVLDVGGGNGGMLAAIALRAPHLRGTLVELAGPAERARRRFADAGLADRVTVAEGDFFKPLPVTADVVLLSFVLLNWSDEDALTILRGCVRALEPGGRLLVLDRADVEGDGADRFFSTLLDLRMLTFMGGRVRTRDEVVDLAGSAGLALASERTSGSTTLPFDFSILEFTAVSEEAAPAAQASEALPAQE
binding result: binds
